Source: article PMC6551489, “Structural insights into interactions between viral suppressor of RNA silencing protein p19 mutants and small RNAs” (FEBS Open Bio, 2019)

T1: CIRV p19-WT (Carnation Italian ringspot virus, UniProt Q66104 1-172)
T1 sequence: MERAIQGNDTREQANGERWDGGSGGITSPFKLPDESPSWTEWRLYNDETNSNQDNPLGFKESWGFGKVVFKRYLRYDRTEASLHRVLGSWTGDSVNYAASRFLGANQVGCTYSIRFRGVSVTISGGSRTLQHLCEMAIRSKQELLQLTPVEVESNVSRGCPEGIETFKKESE


What was measured:
CIRV p19-WT = target: T1, CIRV p19-WT; experiment: X-ray crystallography; 2.2 A; Protein in 20 mM Tris pH 7.4, 150 mM NaCl, 1 mM TCEP before crystallization; crystallization conditions not in the material; conditions: protein: recombinant; tags: N-terminal His6 removed with TEV protease; chain copies: 2; 19 bp, 3' overhang 2 nt on both strands
[1] = target: the molecule itself; experiment: crystal structure; p19 homodimer in complex with GL2 siRNA duplex; hanging drop vapour diffusion at 4 °C, 3-12% PEG 1500, 100 mM sodium acetate pH 4.6, 10-40 mM MgCl2; space group P1

| Binder | binding result (CIRV p19-WT) | binding result [1] |
| --- | --- | --- |
| GL2 siRNA duplex (dsRNA, 5' phosphorylated strands; text says deoxythymidine 2-nt overhangs, but printed as UU) RNA 1: CGUACGCGGAAUACUUCGAUU RNA 2: UCGAAGUAUUCCGCGUACGUU | binds | – |
| wild-type p19 protein from the Carnation Italian ringspot virus (natural protein, p19 viral suppressor of RNA silencing, Carnation Italian ringspot virus (CIRV), full-length construct, codon-optimized for E. coli, in pHis-parallel 2; Crystallised in complex with GL2 siRNA duplex; also called p19-WT; CIRV p19; source: E. coli BL21 DE3, purified (Nickel resin, TEV cleavage, size-exclusion chromatography); not shown: His6, N-terminal, cleaved) MERAIQGNDTREQANGERWDGGSGGITSPFKLPDESPSWTEWRLYNDETNSNQDNPLGFKESWGFGKVVFKRYLRYDRTEASLHRVLGSWTGDSVNYAASRFLGANQVGCTYSIRFRGVSVTISGGSRTLQHLCEMAIRSKQELLQLTPVEVESNVSRGCPEGIETFKKESE | – | binds |
| p19-T111S mutant of the Carnation Italian ringspot virus p19 protein (natural protein, UniProt Q66104 1-172, looked up, Crystallised in complex with GL2 siRNA duplex; also called S111; source: E. coli BL21 DE3, purified (Nickel resin, TEV cleavage, size-exclusion chromatography); not shown: His6, N-terminal, cleaved) MERAIQGNDTREQANGERWDGGSGGITSPFKLPDESPSWTEWRLYNDETNSNQDNPLGFKESWGFGKVVFKRYLRYDRTEASLHRVLGSWTGDSVNYAASRFLGANQVGCSYSIRFRGVSVTISGGSRTLQHLCEMAIRSKQELLQLTPVEVESNVSRGCPEGIETFKKESE | – | binds |
| p19-T111H mutant of the Carnation Italian ringspot virus p19 protein (natural protein, UniProt Q66104 1-172, looked up, Crystallised in complex with GL2 siRNA duplex; also called H111; source: E. coli BL21 DE3, purified (Nickel resin, TEV cleavage, size-exclusion chromatography); not shown: His6, N-terminal, cleaved) MERAIQGNDTREQANGERWDGGSGGITSPFKLPDESPSWTEWRLYNDETNSNQDNPLGFKESWGFGKVVFKRYLRYDRTEASLHRVLGSWTGDSVNYAASRFLGANQVGCHYSIRFRGVSVTISGGSRTLQHLCEMAIRSKQELLQLTPVEVESNVSRGCPEGIETFKKESE | – | binds |
